# Test results as given in paper PMC8298264, “Function of cofactor Akirin2 in the regulation of gene expression in model human neutrophil-like HL60 cells” (Bioscience Reports, 2021).
# Test system: human HL60 cells
# Experiment: SWATH-MS proteomics, differential protein representation, akirin2 KO vs WT HL60 cells
# Format: cell-based
# Settings: KO vs WT HL60 cells; sheet "Under-represented in KO"
# Method in brief: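 First, proteins from wild-type and knockout cells are digested with trypsin by FASP. Next, pooled IDA runs generate a reference ion library. Then six samples of 5 µg each are acquired by data-independent SWATH, and protein areas are normalized to the summed area of all detected proteins.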
Molecule,Fold Change,Log (Fold Change)
"sp¦Q9Y617¦SERC_HUMAN (protein, UniProt Q9Y617 1-370, looked up) Phosphoserine aminotransferase: MDAPRQVVNFGPGPAKLPHSVLLEIQKELLDYKGVGISVLEMSHRSSDFAKIINNTENLVRELLAVPDNYKVIFLQGGGCGQFSAVPLNLIGLKAGRCADYVVTGAWSAKAAEEAKKFGTINIVHPKLGSYTKIPDPSTWNLNPDASYVYYCANETVHGVEFDFIPDVKGAVLVCDMSSNFLSKPVDVSKFGVIFAGAQKNVGSAGVTVVIVRDDLLGFALRECPSVLEYKVQAGNSSLYNTPPCFSIYVMGLVLEWIKNNGGAAAMEKLSSIKSQTIYEIIDNSQGFYVCPVEPQNRSKMNIPFRIGNAKGDDALEKRFLDKALELNMLSLKGHRSVGGIRASLYNAVTIEDVQKLAAFMKKFLEMHQL",0.4967,-0.3039
"sp¦P36776¦LONM_HUMAN (protein, UniProt P36776 68-959, looked up) Lon protease homolog, …: FWEASSRGGGAFSGGEDASEGGAEEGAGGAGGSAGAGEGPVITALTPMTIPDVFPHLPLIAITRNPVFPRFIKIIEVKNKKLVELLRRKVRLAQPYVGVFLKRDDSNESDVVESLDEIYHTGTFAQIHEMQDLGDKLRMIVMGHRRVHISRQLEVEPEEPEAENKHKPRRKSKRGKKEAEDELSARHPAELAMEPTPELPAEVLMVEVENVVHEDFQVTEEVKALTAEIVKTIRDIIALNPLYRESVLQMMQAGQRVVDNPIYLSDMGAALTGAESHELQDVLEETNIPKRLYKALSLLKKEFELSKLQQRLGREVEEKIKQTHRKYLLQEQLKIIKKELGLEKDDKDAIEEKFRERLKELVVPKHVMDVVDEELSKLGLLDNHSSEFNVTRNYLDWLTSIPWGKYSNENLDLARAQAVLEEDHYGMEDVKKRILEFIAVSQLRGSTQGKILCFYGPPGVGKTSIARSIARALNREYFRFSVGGMTDVAEIKGHRRTYVGAMPGKIIQCLKKTKTENPLILIDEVDKIGRGYQGDPSSALLELLDPEQNANFLDHYLDVPVDLSKVLFICTANVTDTIPEPLRDRMEMINVSGYVAQEKLAIAERYLVPQARALCGLDESKAKLSSDVLTLLIKQYCRESGVRNLQKQVEKVLRKSAYKIVSGEAESVEVTPENLQDFVGKPVFTVERMYDVTPPGVVMGLAWTAMGGSTLFVETSLRRPQDKDAKGDKDGSLEVTGQLGEVMKESARIAYTFARAFLMQHAPANDYLVTSHIHLHVPEGATPKDGPSAGCTIVTALLSLAMGRPVRQNLAMTGEVSLTGKILPVGGIKEKTIAAKRAGVTCIVLPAENKKDFYDLAAFITEGLEVHFVEHYREIFDIAFPDEQAEALAVER",0.5023,-0.2991
"sp¦Q9NUQ9¦CYRIB_HUMAN (protein, UniProt Q9NUQ9 2-324, looked up) CYFIP-related Rac1 interactor …: GNLLKVLTCTDLEQGPNFFLDFENAQPTESEKEIYNQVNVVLKDAEGILEDLQSYRGAGHEIREAIQHPADEKLQEKAWGAVVPLVGKLKKFYEFSQRLEAALRGLLGALTSTPYSPTQHLEREQALAKQFAEILHFTLRFDELKMTNPAIQNDFSYYRRTLSRMRINNVPAEGENEVNNELANRMSLFYAEATPMLKTLSDATTKFVSENKNLPIENTTDCLSTMASVCRVMLETPEYRSRFTNEETVSFCLRVMVGVIILYDHVHPVGAFAKTSKIDMKGCIKVLKDQPPNSVEGLLNALRYTTKHLNDETTSKQIKSMLQ",0.4847,-0.3146
"sp¦P42126¦ECI1_HUMAN (protein, UniProt P42126 42-302, looked up) Enoyl-CoA delta isomerase 1, …: FGSQRVLVEPDAGAGVAVMKFKNPPVNSLSLEFLTELVISLEKLENDKSFRGVILTSDRPGVFSAGLDLTEMCGRSPAHYAGYWKAVQELWLRLYQSNLVLVSAINGACPAGGCLVALTCDYRILADNPRYCIGLNETQLGIIAPFWLKDTLENTIGHRAAERALQLGLLFPPAEALQVGIVDQVVPEEQVQSTALSAIAQWMAIPDHARQLTKAMMRKATASRLVTQRDADVQNFVSFISKDSIQKSLQMYLERLKEEKG",0.4682,-0.3295
"sp¦P11387¦TOP1_HUMAN (protein, UniProt P11387 2-765, looked up) DNA topoisomerase 1: SGDHLHNDSQIEADFRLNDSHKHKDKHKDREHRHKEHKKEKDREKSKHSNSEHKDSEKKHKEKEKTKHKDGSSEKHKDKHKDRDKEKRKEEKVRASGDAKIKKEKENGFSSPPQIKDEPEDDGYFVPPKEDIKPLKRPRDEDDADYKPKKIKTEDTKKEKKRKLEEEEDGKLKKPKNKDKDKKVPEPDNKKKKPKKEEEQKWKWWEEERYPEGIKWKFLEHKGPVFAPPYEPLPENVKFYYDGKVMKLSPKAEEVATFFAKMLDHEYTTKEIFRKNFFKDWRKEMTNEEKNIITNLSKCDFTQMSQYFKAQTEARKQMSKEEKLKIKEENEKLLKEYGFCIMDNHKERIANFKIEPPGLFRGRGNHPKMGMLKRRIMPEDIIINCSKDAKVPSPPPGHKWKEVRHDNKVTWLVSWTENIQGSIKYIMLNPSSRIKGEKDWQKYETARRLKKCVDKIRNQYREDWKSKEMKVRQRAVALYFIDKLALRAGNEKEEGETADTVGCCSLRVEHINLHPELDGQEYVVEFDFLGKDSIRYYNKVPVEKRVFKNLQLFMENKQPEDDLFDRLNTGILNKHLQDLMEGLTAKVFRTYNASITLQQQLKELTAPDENIPAKILSYNRANRAVAILCNHQRAPPKTFEKSMMNLQTKIDAKKEQLADARRDLKSAKADAKVMKDAKTKKVVESKKKAVQRLEEQLMKLEVQATDREENKQIALGTSKLNYLDPRITVAWCKKWGVPIEKIYNKTQREKFAWAIDMADEDYEF",0.4613,-0.336
"sp¦Q9H7B2¦RPF2_HUMAN (protein, UniProt Q9H7B2 1-306, looked up) Ribosome production factor 2 …: MDTLDRVVKPKTKRAKRFLEKREPKLNENIKNAMLIKGGNANATVTKVLKDVYALKKPYGVLYKKKNITRPFEDQTSLEFFSKKSDCSLFMFGSHNKKRPNNLVIGRMYDYHVLDMIELGIENFVSLKDIKNSKCPEGTKPMLIFAGDDFDVTEDYRRLKSLLIDFFRGPTVSNIRLAGLEYVLHFTALNGKIYFRSYKLLLKKSGCRTPRIELEEMGPSLDLVLRRTHLASDDLYKLSMKMPKALKPKKKKNISHDTFGTTYGRIHMQKQDLSKLQTRKMKGLKKRPAERITEDHEKKSKRIKKN",0.4816,-0.3173
"sp¦P25815¦S100P_HUMAN (protein, UniProt P25815 1-95, looked up) Protein S100-P: MTELETAMGMIIDVFSRYSGSEGSTQTLTKGELKVLMEKELPGFLQSGKDKDAVDKLLKDLDANGDAQVDFSEFIVFVAAITSACHKYFEKAGLK",0.4762,-0.3222
"sp¦Q7Z3D6¦GLUCM_HUMAN (protein, UniProt Q7Z3D6 29-616, looked up) D-glutamate cyclase, …: TSSMAGELRPASLVVLPRSLAPAFERFCQVNTGPLPLLGQSEPEKWMLPPQGAISETRMGHPQFWKYEFGACTGSLASLEQYSEQLKDMVAFFLGCSFSLEEALEKAGLPRRDPAGHSQTTVPCVTHAGFCCPLVVTMRPIPKDKLEGLVRACCSLGGEQGQPVHMGDPELLGIKELSKPAYGDAMVCPPGEVPVFWPSPLTSLGAVSSCETPLAFASIPGCTVMTDLKDAKAPPGCLTPERIPEVHHISQDPLHYSIASVSASQKIRELESMIGIDPGNRGIGHLLCKDELLKASLSLSHARSVLITTGFPTHFNHEPPEETDGPPGAVALVAFLQALEKEVAIIVDQRAWNLHQKIVEDAVEQGVLKTQIPILTYQGGSVEAAQAFLCKNGDPQTPRFDHLVAIERAGRAADGNYYNARKMNIKHLVDPIDDLFLAAKKIPGISSTGVGDGGNELGMGKVKEAVRRHIRHGDVIACDVEADFAVIAGVSNWGGYALACALYILYSCAVHSQYLRKAVGPSRAPGDQAWTQALPSVIKEEKMLGILVQHKVRSGVSGIVGMEVDGLPFHNTHAEMIQKLVDVTTAQV",0.5156,-0.2877
"sp¦O95202¦LETM1_HUMAN (protein, UniProt O95202 116-739, looked up) Mitochondrial proton/calcium …: DDSVVEKSLKSLKDKNKKLEEGGPVYSPPAEVVVKKSLGQRVLDELKHYYHGFRLLWIDTKIAARMLWRILNGHSLTRRERRQFLRICADLFRLVPFLVFVVVPFMEFLLPVAVKLFPNMLPSTFETQSLKEERLKKELRVKLELAKFLQDTIEEMALKNKAAKGSATKDFSVFFQKIRETGERPSNEEIMRFSKLFEDELTLDNLTRPQLVALCKLLELQSIGTNNFLRFQLTMRLRSIKADDKLIAEEGVDSLNVKELQAACRARGMRALGVTEDRLRGQLKQWLDLHLHQEIPTSLLILSRAMYLPDTLSPADQLKSTLQTLPEIVAKEAQVKVAEVEGEQVDNKAKLEATLQEEAAIQQEHREKELQKRSEVAKDFEPERVVAAPQRPGTEPQPEMPDTVLQSETLKDTAPVLEGLKEEEITKEEIDILSDACSKLQEQKKSLTKEKEELELLKEDVQDYSEDLQEIKKELSKTGEEKYVEESKASKRLTKRVQQMIGQIDGLISQLEMDQQAGKLAPANGMPTGENVISVAELINAMKQVKHIPESKLTSLAAALDENKDGKVNIDDLVKVIELVDKEDVHISTSQVAEIVATLEKEEKVEEKEKAKEKAEKEVAEVKS",0.5097,-0.2927

# Same assay, conditions: akirin2 KO vs WT HL60 cells; sheet "Under-represented in KO"
Molecule,Fold Change,Log (Fold Change)
"sp¦P47985¦UCRI_HUMAN (protein, UniProt P47985 79-274, looked up) Cytochrome b-c1 complex …: SHTDIKVPDFSEYRRLEVLDSTKSSRESSEARKGFSYLVTGVTTVGVAYAAKNAVTQFVSSMSASADVLALAKIEIKLSDIPEGKNMAFKWRGKPLFVRHRTQKEIEQEAAVELSQLRDPQHDLDRVKKPEWVILIGVCTHLGCVPIANAGDFGGYYCPCHGSHYDASGRIRLGPAPLNLEVPTYEFTSDDMVIVG",0.2341,-0.6306
"sp¦Q9NUQ2¦PLCE_HUMAN (protein, UniProt Q9NUQ2 1-364, looked up) 1-acyl-sn-glycerol-3-phosphate …: MLLSLVLHTYSMRYLLPSVVLLGTAPTYVLAWGVWRLLSAFLPARFYQALDDRLYCVYQSMVLFFFENYTGVQILLYGDLPKNKENIIYLANHQSTVDWIVADILAIRQNALGHVRYVLKEGLKWLPLYGCYFAQHGGIYVKRSAKFNEKEMRNKLQSYVDAGTPMYLVIFPEGTRYNPEQTKVLSASQAFAAQRGLAVLKHVLTPRIKATHVAFDCMKNYLDAIYDVTVVYEGKDDGGQRRESPTMTEFLCKECPKIHIHIDRIDKKDVPEEQEHMRRWLHERFEIKDKMLIEFYESPDPERRKRFPGKSVNSKLSIKKTLPSMLILSGLTAGMLMTDAGRKLYVNTWIYGTLLGCLWVTIKA",0.2386,-0.6223
